Experimental data as given in patent publication US20170101472A1 (Regeneron, published 2017).

T1: human LAG3 chimera (extracellular domain of human LAG3 and trans-membrane/cytoplasmic domain of human CD300a) … (human, UniProt P18627 23-450; Q9UGN4 181-299, limits assumed)
T1 sequence (looked up): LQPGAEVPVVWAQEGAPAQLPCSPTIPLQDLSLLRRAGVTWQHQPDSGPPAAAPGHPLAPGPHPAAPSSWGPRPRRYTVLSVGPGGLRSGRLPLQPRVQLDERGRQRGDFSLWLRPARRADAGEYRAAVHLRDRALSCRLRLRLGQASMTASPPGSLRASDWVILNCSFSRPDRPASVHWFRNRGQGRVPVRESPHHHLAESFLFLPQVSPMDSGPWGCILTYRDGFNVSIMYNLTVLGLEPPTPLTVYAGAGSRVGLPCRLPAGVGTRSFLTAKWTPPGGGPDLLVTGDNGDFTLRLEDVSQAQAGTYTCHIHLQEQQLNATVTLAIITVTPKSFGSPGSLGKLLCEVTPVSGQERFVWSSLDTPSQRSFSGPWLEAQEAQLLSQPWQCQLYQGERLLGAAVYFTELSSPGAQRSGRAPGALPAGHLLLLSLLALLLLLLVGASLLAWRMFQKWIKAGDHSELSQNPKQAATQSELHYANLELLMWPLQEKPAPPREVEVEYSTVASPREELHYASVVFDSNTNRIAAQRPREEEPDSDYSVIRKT

T2: human LAG3 expressed on HEK293 cells (human, UniProt P18627 23-525)
T2 construct: also called hLAG3; HEK293/hLAG3
T2 sequence: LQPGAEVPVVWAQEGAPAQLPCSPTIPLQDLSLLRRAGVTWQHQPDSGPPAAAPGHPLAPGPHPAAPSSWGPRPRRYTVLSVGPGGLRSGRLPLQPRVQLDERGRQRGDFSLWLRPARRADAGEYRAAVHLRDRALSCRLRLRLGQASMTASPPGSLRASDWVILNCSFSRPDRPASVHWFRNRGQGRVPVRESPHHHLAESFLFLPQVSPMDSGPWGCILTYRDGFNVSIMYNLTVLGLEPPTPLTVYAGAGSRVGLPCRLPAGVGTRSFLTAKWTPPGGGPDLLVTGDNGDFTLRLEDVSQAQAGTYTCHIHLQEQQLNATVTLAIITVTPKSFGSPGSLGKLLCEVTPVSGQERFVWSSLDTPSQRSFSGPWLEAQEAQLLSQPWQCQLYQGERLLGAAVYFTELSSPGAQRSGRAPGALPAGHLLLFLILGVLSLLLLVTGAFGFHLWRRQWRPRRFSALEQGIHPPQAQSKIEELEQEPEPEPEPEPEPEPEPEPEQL

B1: H4H15479P (antibody, human IgG4, V domains shown)
VH: QVQLQQWGAGLLNPSETLSLTCAVYGGAFSDYYWNWIRQPPGKGLEWIGEINHRGSTNYNPSLKSRVTISVDTSKNQFSLRMSSVTAADAAVYYCARGEDYDIWNGYYQEKWGQGTLVTVSS
VL: EIVLTQSPATLSLSPGERATLSCRASQSISTYLAWYQQKPGQAPRLLIYDASKRATGIPARFSGSGSGTDFTLTISSLEPEDFVVYYCHQRSNWPLTFGGGTKVEIK
B2: H4H15483P (antibody, human IgG4, V domains shown)
VH: QVQLQQWGAGLLPPSETLSLICAVYGGSFSGYYWSWIRQPPGKGLEWIGEINHRGSTNYNPSLKSRATISVDTSKNQFSLKLSSVTAADTAVYYCSRGEDYYDSSGYSYYFDYWGQGTLVTVSS
VL: EIVLTQSPATLSLSPGERATLSCRASQSVSSYLAWYQQKPGQAPRLLIYDASNRATGIPARFSGSGSGTDFTLTISSLEPEDFAVYYCQQRSNWPLTFGGGTKVEIK
notes: H4H = human IgG4 Fc with S108P hinge mutation
B3: H4H14813N (antibody, human IgG4, V domains shown)
VH: QVQLQQWGAGLLKPSETLSLTCAVYGGSFSGYYWNWIRQPPGKGLEWVGEISHRGSTNYNPSLKSRVTISLDTSKNQFSLKLTSVTAADTAVYYCSRDEELEFRFFDYWGQGTLVTVSS
VL: EIVLTQSPATLSLSPGERATLSCRASQSVSSYLAWYQQKPGQAPRLLVYGASNRATGIPARFSGSGSGTDFTLTISSLEPEDFAFYYCQQRSNWPLTFGGGTKVEIK
notes: as for B2
B4: H4sH15482P (antibody, human IgG4 S228P, kappa)
heavy: QVQLVESGGGVVQPGRSLRLSCVASGFTFSSYGMHWVRQAPGKGLEWVAIIWYDGSNKYYADSVKGRFTISRDNSKNTQYLQMNSLRAEDTAVYYCASVATSGDFDYYGMDVWGQGTTVTVSSASTKGPSVFPLAPCSRSTSESTAALGCLVKDYFPEPVTVSWNSGALTSGVHTFPAVLQSSGLYSLSSVVTVPSSSLGTKTYTCNVDHKPSNTKVDKRVESKYGPPCPPCPAPPVAGPSVFLFPPKPKDTLMISRTPEVTCVVVDVSQEDPEVQFNWYVDGVEVHNAKTKPREEQFNSTYRVVSVLTVLHQDWLNGKEYKCKVSNKGLPSSIEKTISKAKGQPREPQVYTLPPSQEEMTKNQVSLTCLVKGFYPSDIAVEWESNGQPENNYKTTPPVLDSDGSFFLYSRLTVDKSRWQEGNVFSCSVMHEALHNHYTQKSLSLSLGK
light: EIVLTQSPATLSLSPGERTTLSCRASQRISTYLAWYQQKPGQAPRLLIYDASKRATGIPARFSGSGSGTGFTLTISSLEPEDFAVYYCQQRSNWPLTFGGGTKVEIKRTVAAPSVFIFPPSDEQLKSGTASVVCLLNNFYPREAKVQWKVDNALQSGNSQESVTEQDSKDSTYSLSSTLTLSKADYEKHKVYACEVTHQGLSSPVTKSFNRGEC
notes: H4sH = modified human IgG4 Fc; also called mAb1
B5: H4H15482P (antibody, human IgG4 S228P, kappa)
heavy: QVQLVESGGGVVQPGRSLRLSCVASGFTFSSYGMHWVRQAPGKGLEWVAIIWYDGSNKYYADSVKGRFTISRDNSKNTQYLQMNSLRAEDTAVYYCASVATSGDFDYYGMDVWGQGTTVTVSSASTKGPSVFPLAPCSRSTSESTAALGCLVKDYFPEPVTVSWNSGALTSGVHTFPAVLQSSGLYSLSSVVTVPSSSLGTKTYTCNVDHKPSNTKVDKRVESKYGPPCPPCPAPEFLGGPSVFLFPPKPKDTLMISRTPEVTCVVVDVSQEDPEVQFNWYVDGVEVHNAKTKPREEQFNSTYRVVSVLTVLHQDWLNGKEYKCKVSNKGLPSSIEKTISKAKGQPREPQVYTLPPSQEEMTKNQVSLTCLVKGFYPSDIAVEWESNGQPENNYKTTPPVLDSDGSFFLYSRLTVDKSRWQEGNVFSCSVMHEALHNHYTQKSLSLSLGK
light: EIVLTQSPATLSLSPGERTTLSCRASQRISTYLAWYQQKPGQAPRLLIYDASKRATGIPARFSGSGSGTGFTLTISSLEPEDFAVYYCQQRSNWPLTFGGGTKVEIKRTVAAPSVFIFPPSDEQLKSGTASVVCLLNNFYPREAKVQWKVDNALQSGNSQESVTEQDSKDSTYSLSSTLTLSKADYEKHKVYACEVTHQGLSSPVTKSFNRGEC
notes: H4H = human IgG4 Fc with S108P
B6: H4sH15498P2 (antibody, V domains shown)
VH: EVQLVESGGGLVQPGGSLRLSCAASGFTFTSYAMTWVRQAPGKGLEWVSDISGSGGRTYYADSVKGRFTISRDNSKNMLYLQMNILRAEDTAVYHCAKGTGQQVDLYNYYYALDVWGQGTTVTVSS
VL: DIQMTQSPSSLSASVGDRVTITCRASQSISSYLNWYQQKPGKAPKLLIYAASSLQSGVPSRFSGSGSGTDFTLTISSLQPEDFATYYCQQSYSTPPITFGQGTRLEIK
notes: H4sH = human IgG4 Fc with 2 or more amino acid changes as disclosed in US20140243504
B7: H4H15498P2 (antibody, human IgG4, V domains shown)
VH: EVQLVESGGGLVQPGGSLRLSCAASGFTFTSYAMTWVRQAPGKGLEWVSDISGSGGRTYYADSVKGRFTISRDNSKNMLYLQMNILRAEDTAVYHCAKGTGQQVDLYNYYYALDVWGQGTTVTVSS
VL: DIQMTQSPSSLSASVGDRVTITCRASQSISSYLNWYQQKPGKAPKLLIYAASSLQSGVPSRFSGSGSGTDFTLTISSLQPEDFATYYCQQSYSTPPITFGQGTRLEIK
notes: as for B2
B8: H4sH14813N (antibody, human IgG4 S228P, kappa, V domains shown)
VH: QVQLQQWGAGLLKPSETLSLTCAVYGGSFSGYYWNWIRQPPGKGLEWVGEISHRGSTNYNPSLKSRVTISLDTSKNQFSLKLTSVTAADTAVYYCSRDEELEFRFFDYWGQGTLVTVSS
VL: EIVLTQSPATLSLSPGERATLSCRASQSVSSYLAWYQQKPGQAPRLLVYGASNRATGIPARFSGSGSGTDFTLTISSLEPEDFAFYYCQQRSNWPLTFGGGTKVEIKR
notes: H4sH = modified human IgG4 Fc
B9: H4H17819P (antibody, human IgG4, V domains shown)
VH: EVQLVESGGGLVQPGGSLRLSCVASGFTFSLYAMTWVRQVPGKGLEWVSTISGSGGGTYYTDSVKGRFTISRDNSKNTLYLQMNSLRADDTAVFYCTKESTTGTYSYFYGMDVWGQGTTVTVSS
VL: DIQMTQSPSSLSASVGDRVTITCRASQTISSYLNWYQQKPGKAPKLLIYAASSLQSGVPSRFSGSGSGTDFTLTLSGLQPEDFATYYCQQSYSTPLTFGGGTKVEIK
notes: as for B2

Legend:
[1] = biological target: T1, human LAG3 chimera (extracellular …); assay: cell-based or functional assay
[2] = biological target: T2, human LAG3 expressed on HEK293 cells; assay: electrochemiluminescence cell binding
Experimental: (§1) To investigate the ability of a panel of anti-LAG3 monoclonal antibodies to bind cell-surface expressed LAG3, an in vitro binding assay utilizing human and monkey LAG3 expressing cell lines in an electrochemiluminescence based detection platform [Meso Scale Diagnostics, Rockville, Md.—(MSD)] was developed.
(§2) Experiments were carried out according to following procedure. Cells from the three cell lines described above were rinsed once in 1×PBS buffer without Ca²⁺/Mg²⁺ followed by 10-minute incubation at 37° C. with Enzyme Free Cell Dissociation Solution. […] Approximately 10,000 cells per well in the cell-washing buffer were seeded into the 96-well carbon electrode plates (MULTI-ARRAY high bind plate, MSD) and incubated for 1 hour at 37° C. to allow the cells to adhere. Nonspecific binding sites were blocked by 2% BSA (w/v) in PBS for 1 hour at room temperature. […] The plates were then washed to remove the unbound antibodies using an AquaMax2000 plate washer (MDS Analytical Technologies). The plate-bound antibodies were detected with a SULFO-TAG™-conjugated anti-human IgG antibody (MSD) for 1 hour at room temperature. After washes, the plates were developed with the Read Buffer (MSD) according to manufacturer's recommended procedure and the luminescent signals were recorded with a SECTOR Imager 6000 (MSD) instrument. The direct binding signals (in relative light units—RLU) were analyzed as a function of the antibody concentration and the data were fitted with a sigmoidal (four-parameter logistic) dose-response model using Graph Pad Prism™ software. The potency of each antibody was determined by calculating EC₅₀.

[3] = biological target: T2, human LAG3 expressed on HEK293 cells; assay: electrochemiluminescence cell binding, HEK293-hLAG3
Experimental: as §1, §2

[4] = biological target: T2, human LAG3 expressed on HEK293 cells; assay: cell adherence assay, blocks RAJI (human MHCII) cells on HEK293-hLAG3
Experimental: Cells were plated into sterile Nunclon™ Delta 96-Well MicroWell™ Black Optical Bottom Plates (Thermo Scientific). The wells from the perimeter of the plate were not included in the assay design to avoid edge effects.
On the day of treatment, all antibodies were serially (1:3) diluted in RPMI media (without FBS or supplements added). The 9-point dilution ranged between 45 pM to 300 nM, with the last dilution point containing no mAb. […] While the plated HEK293-LAG3 cells were incubating with the test or control antibodies, non-adherent B-cells (RAJI or A20) were labeled with Calcein AM using the following procedure. RAJI and A20 suspension cells were harvested and centrifuged at 1,200 rpm for 5 minutes. Cell pellets were resuspended in 1×PBS and counted. Cells were washed with RPMI, and resuspended in RPMI at a concentration of 10⁶ cells per 1 ml. Cells were labeled by adding 5 μL of Calcein AM per 1 ml of cell suspension and incubated for 30 min at 37° C., at 5% CO₂. […] Subsequently, 10 μL of BD Pharmingen Fc Block (0.5 mg/mL) was added per 1 ml of the Calcein AM labeled cells, which were incubated at RT for 10 minutes. The Calcein AM-stained, Fc-blocked RAJI or A20 cells were resuspended in RPMI to a final concentration of 3×10⁶ cells per 1 ml and subsequently used in the adherence assay.
The labeled suspension cells were incubated with the HEK293 monolayer for 1 hour at 37° C., at 5% CO₂.

Binder	EC50, AP1-Luc signaling, bispecific mode [1]	EC50, AP1-Luc signaling, peptide mode [1]	Ratio of 100 nM antibody binding HEK293-hLAG3 to HEK293 cells [2]	EC50 [3]	IC50 [4]
B1	0.145 nM	0.284 nM	20.1	52 nM	31 nM
B2	3.69 nM	2.54 nM	6.6	17.2 nM	19 nM
B3	1.07 nM	1.01 nM	8.9	19.9 nM	17 nM
B4	0.518 nM	0.806 nM			3.3 nM
B5	> 100 nM	2.48 nM		24.7 nM	15 nM
B6	> 100 nM	4.61 nM	99.8	2.87 nM	16 nM
B7	6.62 nM	5.89 nM	38.8	2.95 nM	15 nM
B8	0.688 nM	0.816 nM	19.8	20.3 nM	6 nM
B9	> 100 nM	2.12 nM	22.7	0.69 nM	17 nM
